± gives the uncertainty stated by the source.
Experiment: self-splicing fitness, log relative to wild type (ln ratio); higher = more splicing; Tetrahymena group I intron in knt gene, E. coli kanamycin selection, DiMSum; sequences stand for … in CUCUCU…GGAGGGAAAAGUUAUCAGGCAUGCACCUGGUAGCUAGUCUUUAAACCAAUAGAUUGCAUCGGUUUAAAAGGCAAGACCGUCAAAUUGCGGGAAAGGGGUCAACAGCCGUUCAGUACCAAGUCUCAGGGGAAACUUUGAGAUGGCCUUGCAAAGGGUAUGGUAAUAAGCUGACGGACAUGGUCCUAACCACGCAGCCAAGUCCUAAGUCAACAGAUCUUCUGUUGAUAUGGAUGCAGUUCACAGACUAAAUGUCGGUCGGGGAAGAUGUAUUCUUCUCAUAAGAUAUAGUCGGACCUCUCCUUAAUGGGAGCUAGCGGAUGAAGUGAUGCAACACUGGAGCCGCUGGGAACUAAUUUGUAUGCGAAAGUAUAUUGAUUAGUUUUGGAGUACUCGUGGUCG
Method in brief: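 Library with all eight P1ex-region intron nucleotides randomised, intron inside the knt kanamycin-resistance gene on pET-22b(+), in E. coli BL21(DE3). Cells grew overnight at 37°C or 30°C on LB agar with or without 25 μg/mL kanamycin (plus 100 μg/mL carbenicillin, 50 μM IPTG, 0.2% rhamnose), in six replicate transformations. Pooled colonies were amplicon-sequenced on Illumina HiSeq 2500. DiMSum fitness is the error-weighted combination of wild-type-normalised replicate fold changes, kanamycin versus none.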

Sequence	self-splicing fitness (ln) (30 °C)	self-splicing fitness (ln) (37 °C)
UUCGAGCAAUAUUACGAGUC	-2.82 ± 0.29	-2.03 ± 0.45
UUCGAGCAAUAUUACGAUUC	-3.5 ± 0.44	–
UUCGAGCAAUAUUACGCAGG	-2.48 ± 0.27	-1.82 ± 0.23
UUCGAGCAAUAUUACGCCUG	-3.17 ± 0.29	-2.64 ± 0.2
UUCGAGCAAUAUUACGCGAG	-2.72 ± 0.37	-1.94 ± 0.44
UUCGAGCAAUAUUACGCGGA	-2.94 ± 0.25	-3.71 ± 0.39
UUCGAGCAAUAUUACGGCUA	-1.51 ± 0.38	-0.029 ± 0.37
UUCGAGCAAUAUUACGGGCG	-2.45 ± 0.2	-1.01 ± 0.18
UUCGAGCAAUAUUACGUAAG	-3.03 ± 0.36	-3.24 ± 0.42
UUCGAGCAAUAUUACGUGGA	-2.74 ± 0.22	-2.58 ± 0.2
UUCGAGCAAUAUUACGUGGG	-2.45 ± 0.12	-2.75 ± 0.19
UUCGAGCAAUAUUACGUUGC	-2.18 ± 0.23	-1.27 ± 0.28
UUCGAGCAAUAUUACGUUGG	-4.14 ± 0.39	-2.03 ± 0.43
UUCGAGCAAUAUUACGUUUA	-2 ± 0.16	-1.54 ± 0.16
UUCUAGCAAUAUUACGAAGC	–	-1.2 ± 0.45
UUCUAGCAAUAUUACGAAUA	-2.64 ± 0.3	-0.478 ± 0.17
UUCUAGCAAUAUUACGAGGC	–	-2.11 ± 0.38
UUCUAGCAAUAUUACGAGUG	0.0611 ± 0.065	0.118 ± 0.094
UUCUAGCAAUAUUACGAUUU	-1.54 ± 0.16	-1.33 ± 0.15
UUCUAGCAAUAUUACGGAGU	-2.24 ± 0.2	-2.56 ± 0.26
UUCUAGCAAUAUUACGGCCA	-2.24 ± 0.4	-1.84 ± 0.42
UUCUAGCAAUAUUACGGGUA	-0.701 ± 0.18	-0.842 ± 0.2
UUCUAGCAAUAUUACGGUUA	-1.7 ± 0.11	-0.789 ± 0.093
UUCUAGCAAUAUUACGUGUA	-1.26 ± 0.08	-0.8 ± 0.094
UUGAAGCAAUAUUACGAAUG	-0.746 ± 0.081	-0.263 ± 0.11

Sequence	self-splicing fitness (ln) (30 °C)	self-splicing fitness (ln) (37 °C)
UUGAAGCAAUAUUACGAGGG	-1.6 ± 0.17	-1.37 ± 0.24
UUGAAGCAAUAUUACGAGGU	-4.15 ± 0.37	-1.78 ± 0.22
UUGAAGCAAUAUUACGAGUC	-3.73 ± 0.32	-2.8 ± 0.38
UUGAAGCAAUAUUACGAGUG	-0.347 ± 0.055	-0.22 ± 0.077
UUGAAGCAAUAUUACGAUUG	-1.35 ± 0.088	0.272 ± 0.11
UUGAAGCAAUAUUACGCAAG	-0.402 ± 0.099	0.251 ± 0.12
UUGAAGCAAUAUUACGCACA	-0.575 ± 0.11	0.157 ± 0.13
UUGAAGCAAUAUUACGCAGU	-1.2 ± 0.3	-1.54 ± 0.32
UUGAAGCAAUAUUACGCAUC	-3.54 ± 0.33	–
UUGAAGCAAUAUUACGCAUG	-0.179 ± 0.12	-0.519 ± 0.11
UUGAAGCAAUAUUACGCCCA	0.429 ± 0.12	0.296 ± 0.16
UUGAAGCAAUAUUACGGACG	-0.0419 ± 0.12	0.902 ± 0.15
UUGAAGCAAUAUUACGGGGU	-2.29 ± 0.2	-2.27 ± 0.26
UUGAAGCAAUAUUACGUACA	0.247 ± 0.1	0.767 ± 0.14
UUGAAGCAAUAUUACGUACU	-0.493 ± 0.088	-0.0917 ± 0.11
UUGAAGCAAUAUUACGUCGG	0.235 ± 0.075	-0.024 ± 0.084
UUGAAGCAAUAUUACGUGAC	-3.1 ± 0.3	-1.29 ± 0.24
UUGAAGCAAUAUUACGUUGA	-0.405 ± 0.093	-0.404 ± 0.11
UUGCAGCAAUAUUACGAAAG	–	-1.5 ± 0.35
UUGCAGCAAUAUUACGACGG	-0.213 ± 0.076	0.395 ± 0.11
UUGCAGCAAUAUUACGAGCA	-2.35 ± 0.17	-0.7 ± 0.11
UUGCAGCAAUAUUACGAGUC	-3.64 ± 0.2	-2.64 ± 0.28
UUGCAGCAAUAUUACGAUGA	-0.402 ± 0.097	0.367 ± 0.12
UUGCAGCAAUAUUACGCACU	-1.6 ± 0.13	-1.15 ± 0.13

From the supplement of paper PMC7877785
